Measurements as given in publication PMC5368644.

What was measured:
Test in all cases: NMR
Settings in all cases: 25 °C; Not stated for the titration samples (structure samples contained 45 mM NaCl, 1 mM EDTA, 1 mM EGTA); Phosphate buffer for pH 7.3 to 5.9; acetate buffer for pH 5.5 to 3.5; pH changed by buffer exchange; concentrations not given; Ca2+-free, ligand-free, folded (the protein starts to unfold at pH 3 or below); ~0.5 mM protein
[1] = target: His119 (UniProt position 146, GRAVQHREVQG)
[2] = target: Glu156 (UniProt position 183, HVVPNEVVVQR)
[3] = target: His29 (UniProt position 56, SMVVEHPEFLK)
[4] = target: Asp96 (UniProt position 123, NECSQDESGAA)
[5] = target: Asp84 (UniProt position 111, GNLQYDLHYWL)
[6] = target: Asp50 (UniProt position 77, RVEKFDLVPVP)
[7] = target: Asp66 (UniProt position 93, DFFTGDAYVIL)
[8] = target: Glu38 (UniProt position 65, LKAGKEPGLQI)
[9] = target: Glu121 (UniProt position 148, AVQHREVQGFE)
[10] = target: Glu97 (UniProt position 124, ECSQDESGAAA)
[11] = target: Asp110 (UniProt position 137, TVQLDDYLNGR)
[12] = target: Glu92 (UniProt position 119, YWLGNECSQDE)
[13] = target: His86 (UniProt position 113, LQYDLHYWLGN)
[14] = target: Glu47 (UniProt position 74, QIWRVEKFDLV)
[15] = target: Asp109 (UniProt position 136, FTVQLDDYLNG)
[16] = target: Asp61 (UniProt position 88, TNLYGDFFTGD)
[17] = target: His151 (UniProt position 178, ASGFKHVVPNE)
[18] = target: Glu126 (UniProt position 153, EVQGFESATFL)

Work on “Gelsolin fragment G1+ (domain 1 plus G1-G2 linker) (Homo sapiens (inferred; not stated explicitly in the article))” yielded a pKa [1] of 4.3, a pKa [2] of 3.8 and a pKa [3] of 5.9. It also gave a pKa [4] of under 3.5, a pKa [5] of under 3.5 and a pKa [6] of 4.8. For the same substance, the pKa [7] was 3.9, the pKa [8] was 4.1 and the pKa [9] was under 3.5. It also gave a pKa [10] of under 3.5, a pKa [11] of 4.3 and a pKa [12] of 4.3. It also gave a pKa [13] of 4.2, a pKa [14] of under 3.5 and a pKa [15] of 5.5. For the same substance, the pKa [16] was 4.5, the pKa [17] was 6.2 and the pKa [18] was under 3.5.
